In paper PMC10786891, “Massively parallel profiling of RNA-targeting CRISPR-Cas13d”:
Changes are numbered by the printed parent chain. In names and notes the source's numbering stands.

Target: T1, EsCas13d, nuclease-dead (Eubacterium siraeum, UniProt B0MS50, R295A;H300A;R849A;H854A)
T1 sequence: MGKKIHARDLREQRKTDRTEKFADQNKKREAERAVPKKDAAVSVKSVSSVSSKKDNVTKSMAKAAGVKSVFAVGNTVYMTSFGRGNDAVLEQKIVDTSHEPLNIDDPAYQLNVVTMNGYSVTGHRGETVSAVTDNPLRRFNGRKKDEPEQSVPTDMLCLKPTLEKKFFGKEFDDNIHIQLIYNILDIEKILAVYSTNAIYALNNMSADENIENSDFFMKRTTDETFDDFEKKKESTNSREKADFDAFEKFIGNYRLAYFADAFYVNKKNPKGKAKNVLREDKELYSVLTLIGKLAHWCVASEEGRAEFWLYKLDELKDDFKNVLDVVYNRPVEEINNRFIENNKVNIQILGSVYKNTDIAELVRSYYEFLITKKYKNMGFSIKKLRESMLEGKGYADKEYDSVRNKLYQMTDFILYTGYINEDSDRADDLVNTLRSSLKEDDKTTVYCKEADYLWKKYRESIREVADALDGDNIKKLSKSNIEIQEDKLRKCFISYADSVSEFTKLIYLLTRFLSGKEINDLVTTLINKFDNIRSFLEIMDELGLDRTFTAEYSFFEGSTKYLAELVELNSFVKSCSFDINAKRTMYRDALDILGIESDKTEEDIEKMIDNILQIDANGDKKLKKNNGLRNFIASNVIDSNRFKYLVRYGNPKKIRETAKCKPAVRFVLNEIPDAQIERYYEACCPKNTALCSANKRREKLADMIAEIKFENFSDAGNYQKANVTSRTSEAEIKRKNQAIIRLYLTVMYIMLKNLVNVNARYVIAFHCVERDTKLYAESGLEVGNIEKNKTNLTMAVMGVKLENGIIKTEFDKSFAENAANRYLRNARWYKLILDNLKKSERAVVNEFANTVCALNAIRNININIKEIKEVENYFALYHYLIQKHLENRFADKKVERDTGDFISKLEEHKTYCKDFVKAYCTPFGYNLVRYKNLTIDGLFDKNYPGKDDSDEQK
Test: crRNA (strand 1, pre-loaded); Mg2+; 40 mM Tris-HCl pH 7.5, 150 mM NaCl, 6 mM MgCl2, 1 mM DTT, 0.1% Tween-20, 0.2 mg/ml BSA; 25 C; 10 min per concentration, then washed
Conditions: tags: His6-TwinStrep-SUMO cleaved; N-terminal SNAP kept (SNAP-Surface 488); label: 3' end held by stalled T7 RNA polymerase

B1: target 1 insA 3' of 21,insG 3' of 4 (mixed)
RNA 1: CACCCGUGCAAAAAUGCAGGGGUCUAAAACUGAGCGGAUAACCUCUCUAUGG
RNA 2: GGGAAUGGAUCCACAUCUACGAAUUCGUACCAAUAGAGAGGUUAUCCGCGUCACCGAGAUCGGAAGAGCACACGU
Kd: 0.0143 ± 0.0011 µM

B2: target 1 insC 3' of 19,insG 3' of 3 (mixed)
RNA 1: B1 RNA 1
RNA 2: B1 RNA 2 with A33U, U34C, G50U, U51G
Kd: 0.026 ± 0.0014 µM

B3: target 1 insG 3' of 16,insG 3' of 14 (mixed)
RNA 1: B1 RNA 1
RNA 2: GGGAAUGGAUCCACAUCUACGAAUUCGUACCAUAGAGGAGGGUUAUCCGCUCACCGAGAUCGGAAGAGCACACGU
Kd: 0.0156 ± 0.0013 µM

B4: target 1 G5U,G17U (mixed)
RNA 1: B1 RNA 1
RNA 2: GGGAAUGGAUCCACAUCUACGAAUUCGUACCAUAUAGAGGUUAUCCUCUCACCGAGAUCGGAAGAGCACACGU
Kd: 0.062 ± 0.008 µM

B5: target 1 U3G,U10G (mixed)
RNA 1: B1 RNA 1
RNA 2: B4 RNA 2 with U35G, U42G, U47G, U49G
Kd: 0.0352 ± 0.0029 µM

B6: target 1 insA 3' of 19,insA 3' of 3 (mixed)
RNA 1: B1 RNA 1
RNA 2: B1 RNA 2 with A33U, U34A, G50U, U51A
Kd: 0.0167 ± 0.001 µM

B7: target 1 insA 3' of 4,insG 3' of 2 (mixed)
RNA 1: B1 RNA 1
RNA 2: GGGAAUGGAUCCACAUCUACGAAUUCGUACCAUAGAGAGGUUAUCCGCAUCGACCGAGAUCGGAAGAGCACACGU
Kd: 0.0077 ± 0.0006 µM

B8: target 1 insC 3' of 13,insG 3' of 11 (mixed)
RNA 1: B1 RNA 1
RNA 2: B3 RNA 2 with G38A, A39G, G40C, G42U, U43G
Kd: 0.0285 ± 0.0034 µM

B9: target 1 U8G,U10C (mixed)
RNA 1: B1 RNA 1
RNA 2: B4 RNA 2 with U35G, U42C, U44G, U47G
Kd: 0.0198 ± 0.0012 µM

B10: target 1 U19C,C22G (mixed)
RNA 1: B1 RNA 1
RNA 2: B4 RNA 2 with C30G, U33C, U35G, U47G
Kd: ~0.08 µM

B11: target 1 C7G,G12A (mixed)
RNA 1: B1 RNA 1
RNA 2: B4 RNA 2 with U35G, G40A, C45G, U47G
Kd: 0.0154 ± 0.0013 µM

B12: target 1 insC 3' of 13,insU 3' of 2 (mixed)
RNA 1: B1 RNA 1
RNA 2: B7 RNA 2 with G40C, U41G, A43U, U44A, C45U, G47C, C48G, A49C, G52U
Kd: 0.0144 ± 0.0013 µM

B13: target 1 C6A,U8A (mixed)
RNA 1: B1 RNA 1
RNA 2: B4 RNA 2 with U35G, U44A, C46A, U47G
Kd: 0.0144 ± 0.0004 µM

B14: target 1 G5A,G17C (mixed)
RNA 1: B1 RNA 1
RNA 2: B4 RNA 2 with U35C, U47A
Kd: 0.08 ± 0.021 µM

B15: target 1 U19G,C21U (mixed)
RNA 1: B1 RNA 1
RNA 2: B4 RNA 2 with C31U, U33G, U35G, U47G
Kd: 0.0111 ± 0.0013 µM

B16: target 1 insG 3' of 16,insU 3' of 2 (mixed)
RNA 1: B1 RNA 1
RNA 2: B1 RNA 2 with A33U, U34A, A35G, G36A, A37G, G50U, U51C, C52U
Kd: 0.0151 ± 0.0013 µM

B17: target 1 U8C,A14C (mixed)
RNA 1: B1 RNA 1
RNA 2: B4 RNA 2 with U35G, A38C, U44C, U47G
Kd: 0.081 ± 0.014 µM

B18: target 1 insC 3' of 18,insU 3' of 18 (mixed)
RNA 1: B1 RNA 1
RNA 2: B3 RNA 2 with G35C, A36U, G38A, A39G, G40A
Kd: 0.057 ± 0.006 µM

B19: target 1 insA 3' of 15,insC 3' of 10 (mixed)
RNA 1: B1 RNA 1
RNA 2: B3 RNA 2 with G38A, G42U, U44C
Kd: ~0.08 µM

B20: target 1 insA 3' of 12,insU 3' of 7 (mixed)
RNA 1: B1 RNA 1
RNA 2: B3 RNA 2 with G38A, A39G, G41A, G42U, U44A, A45U, U46C, C47U
Kd: 0.042 ± 0.005 µM

B21: target 1 insC 3' of 18,insA 3' of 15 (mixed)
RNA 1: B1 RNA 1
RNA 2: B3 RNA 2 with G35C, A36G, G37A, G40A
Kd: 0.0251 ± 0.0012 µM

B22: target 1 insA 3' of 22,insA 3' of 5 (mixed)
RNA 1: B1 RNA 1
RNA 2: B1 RNA 2 with C31A, A32C, C49A, G50C
Kd: 0.0072 ± 0.0006 µM

B23: target 1 insA 3' of 13,insU 3' of 2 (mixed)
RNA 1: B1 RNA 1
RNA 2: B7 RNA 2 with G40A, U41G, A43U, U44A, C45U, G47C, C48G, A49C, G52U
Kd: 0.0043 ± 0.0004 µM

B24: target 1 U8A,U10G (mixed)
RNA 1: B1 RNA 1
RNA 2: B4 RNA 2 with U35G, U42G, U44A, U47G
Kd: 0.0182 ± 0.0008 µM

B25: target 1 insA 3' of 15,insC 3' of 15 (mixed)
RNA 1: B1 RNA 1
RNA 2: B3 RNA 2 with G38A, A39C, G40A
Kd: 0.0204 ± 0.0016 µM

B26: target 1 insA 3' of 15,insU 3' of 6 (mixed)
RNA 1: B1 RNA 1
RNA 2: B3 RNA 2 with G38A, G42U, U44A, A45U, U46C, C48U
Kd: 0.0113 ± 0.0005 µM

B27: target 1 C4U,G5C (mixed)
RNA 1: B1 RNA 1
RNA 2: B4 RNA 2 with U35G, U47C, C48U
Kd: 0.039 ± 0.004 µM

B28: target 1 C4G,G15U (mixed)
RNA 1: B1 RNA 1
RNA 2: B4 RNA 2 with U35G, G37U, U47G, C48G
Kd: 0.022 ± 0.008 µM

B29: target 1 insC 3' of 14,insA 3' of 12 (mixed)
RNA 1: B1 RNA 1
RNA 2: B3 RNA 2 with G38A, A39C, G42A
Kd: 0.07 ± 0.014 µM

B30: target 1 insU 3' of 22,insA 3' of 10 (mixed)
RNA 1: B1 RNA 1
RNA 2: B1 RNA 2 with C31U, A32C, U45A, C46U, G48C, C49G, G50C
Kd: 0.043 ± 0.005 µM

B31: target 1 U3C,G12U (mixed)
RNA 1: B1 RNA 1
RNA 2: B4 RNA 2 with U35G, G40U, U47G, U49C
Kd: 0.0194 ± 0.0014 µM

B32: target 1 insA 3' of 17,insA 3' of 15 (mixed)
RNA 1: B1 RNA 1
RNA 2: B3 RNA 2 with G37A, G40A
Kd: 0.008 ± 0.0008 µM

B33: target 1 insU 3' of 18,insA 3' of 15 (mixed)
RNA 1: B1 RNA 1
RNA 2: B3 RNA 2 with G35U, A36G, G37A, G40A
Kd: 0.0205 ± 0.0025 µM

B34: target 1 A1G,C22U (mixed)
RNA 1: B1 RNA 1
RNA 2: B4 RNA 2 with C30U, U35G, U47G, A51G
Kd: 0.0139 ± 0.0025 µM
